Results: publication PMC12506977

Biological target: Tetrahymena Bld10/CEP135 (Tetrahymena thermophila (endogenous in strain SB715))
Assay: cryo-EM structure; single-particle analysis of mechanically disrupted (splayed) centrioles isolated from Tetrahymena, 10 mM Hepes pH 7.5; proximal A-C linker (class 1) with adjacent microtubule triplet regions; focused maps 3.6 to 3.8 Å (B-C junction 3.8 and 4.0 Å, A-B junction 5.8 Å); proteins assigned by fitting AlphaFold2 models of MS-detected proteins (COLORES)

stoichiometry N: 2
Substance: Tetrahymena Bld10/CEP135 (natural protein)
